Reference: patent US20190085084A1 (published 2019)
Substitutions are numbered along the chain they refer to. One block for each binder: values may come before it.

Tests used:
[1] = target: T1, mouse Sortilin (R&D Systems), recombinant (mouse, UniProt Q6PHU5 74-754, limits assumed); test: ELISA, biotinylated Progranulin on plate-immobilized Sortilin
T1 construct: Bought protein; also called mouse SORT1
Method: (§1) Briefly, human or mouse Sortilin (R&D Systems) was immobilized overnight on an ELISA plate (2 μg/ml in PBS). The plates were washed in wash buffer (PBS+0.05% TWEEN20) and blocked for one hour at 37° C. with binding buffer (PBS+1% BSA). […] Plates were washed thrice in wash buffer and incubated with Streptavidin-HRP (1:200 in binding buffer, R&D Systems) for 20 min. Plates were washed thrice again and incubated with TMB substrate solution until color developed. The reaction was stopped by adding 50 ul of 2N sulfuric acid and color was quantified using a Biotek Synergy H1 plate reader. Data was analyzed and fitted in Prism.

[2] = target: T2, Human His-tagged Sortilin (R&D Systems) (human, UniProt Q99523 78-755); test: Biacore SPR, Sortilin captured by anti-His antibody on CM5 chip, Progranulin flowed over
T2 construct: Bought protein; also called His-captured Sortilin (SORT1); Histidine-tagged human Sortilin
From the text: Briefly, Sortilin was captured on a CM5 sensor chip that was immobilized with an anti-His antibody (kit from GE). Progranulin was flowed over in HBS binding buffer at various concentrations. Fitting of sensorgrams for affinity estimations was done using BIAevaluation version 3.1.

[3] = target: T2, Human His-tagged Sortilin (R&D Systems); test: ELISA, biotinylated Progranulin on plate-immobilized Sortilin
Method: as §1

[4] = target: T3, human Sortilin expressed on HEK293T cells (human, UniProt Q99523 78-830); test: flow cytometry titration on HEK293T cells expressing human Sortilin, 4 C, apparent KD
T3 construct: also called hSort; HEK293T+ hSort

[5] = target: T4, mouse Sortilin expressed on HEK293T cells (mouse, UniProt Q6PHU5 74-825); test: flow cytometry titration on HEK293T cells expressing mouse Sortilin, 4 C, apparent KD
T4 construct: also called msSort; mSort

- Kd [1]: 40 nM
B1: recombinant mouse Progranulin (Adipogen) (ligand, UniProt P28798 18-589, looked up)
chain: TQCPDGQFCPVACCLDQGGANYSCCNPLLDTWPRITSHHLDGSCQTHGHCPAGYSCLLTVSGTSSCCPFSKGVSCGDGYHCCPQGFHCSADGKSCFQMSDNPLGAVQCPGSQFECPDSATCCIMVDGSWGCCPMPQASCCEDRVHCCPHGASCDLVHTRCVSPTGTHTLLKKFPAQKTNRAVSLPFSVVCPDAKTQCPDDSTCCELPTGKYGCCPMPNAICCSDHLHCCPQDTVCDLIQSKCLSKNYTTDLLTKLPGYPVKEVKCDMEVSCPEGYTCCRLNTGAWGCCPFAKAVCCEDHIHCCPAGFQCHTEKGTCEMGILQVPWMKKVIAPLRLPDPQILKSDTPCDDFTRCPTNNTCCKLNSGDWGCCPIPEAVCCSDNQHCCPQGFTCLAQGYCQKGDTMVAGLEKIPARQTTPLQIGDIGCDQHTSCPVGQTCCPSLKGSWACCQLPHAVCCEDRQHCCPAGYTCNVKARTCEKDVDFIQPPVLLTLGPKVGNVECGEGHFCHDNQTCCKDSAGVWACCPYLKGVCCRDGRHCCPGGFHCSARGTKCLRKKIPRWDMFLRDPVPRPLL
notes: Used biotinylated; also called mPGRN; mouse PGRN

- Kd [2]: 14.3 nM
- Kd [3]: 14 nM
B2: recombinant human Progranulin (Adipogen) (ligand, UniProt P28799 18-593, looked up)
chain: TRCPDGQFCPVACCLDPGGASYSCCRPLLDKWPTTLSRHLGGPCQVDAHCSAGHSCIFTVSGTSSCCPFPEAVACGDGHHCCPRGFHCSADGRSCFQRSGNNSVGAIQCPDSQFECPDFSTCCVMVDGSWGCCPMPQASCCEDRVHCCPHGAFCDLVHTRCITPTGTHPLAKKLPAQRTNRAVALSSSVMCPDARSRCPDGSTCCELPSGKYGCCPMPNATCCSDHLHCCPQDTVCDLIQSKCLSKENATTDLLTKLPAHTVGDVKCDMEVSCPDGYTCCRLQSGAWGCCPFTQAVCCEDHIHCCPAGFTCDTQKGTCEQGPHQVPWMEKAPAHLSLPDPQALKRDVPCDNVSSCPSSDTCCQLTSGEWGCCPIPEAVCCSDHQHCCPQGYTCVAEGQCQRGSEIVAGLEKMPARRASLSHPRDIGCDQHTSCPVGQTCCPSLGGSWACCQLPHAVCCEDRQHCCPAGYTCNVKARSCEKEVVSAQPATFLARSPHVGVKDVECGEGHFCHDNQTCCRDNRQGWACCPYRQGVCCADRRHCCPAGFRCAARGTKCLRREAPRWDAPLRDPALRQLL
notes: Used unlabelled, biotinylated (NHS-PEG4 or Sulfo-NHS) or labelled with DyLight 650, as the assay says; also called PGRN; hPGRN

- Kd [4]: 2.05 nM
B3: anti-Sortilin antibody S-22-7 (antibody, V domains shown)
VH: QVQLVQSGAEVKKPGSSVKVSCKASGGTFSSYAISWVRQAPGQGLEWMGGIIPGFGRANYAQKFQGRVTITADESTSTAYMELSSLRSEDTAVYYCARQGRKTGYYYYYGMDVWGQGTTVTVSS
VL: DIQMTQSPSTLSASVGDRVTITCRASQSISSWLAWYQQKPGKAPKLLIYKASSLESGVPSRFSGSGSGTEFTLTISSLQPDDFATYYCQQADGHITFGGGTKVEIK

- Kd [4]: 3.84 nM
- Kd [5]: 6.62 nM
B4: anti-Sortilin antibody S-15-6-12 (antibody, V domains shown)
VH: QVQLVQSGAEVKKPGASVKVSCKASGYTFTSRYMSWVRQAPGQGLEWMGIINPVGGSTSYAQKFQGRVTMTRDTSTSTVYMELSSLRSEDTAVYYCARDPSGIALAGPGSPYYRGMDVWGQGTTVTVSS
VL: EIVMTQSPATLSVSPGERATLSCRASQSVSSNLAWYQQKPGQAPRLLIYGASTRATGIPARFSGSGSGTEFTLTISSLQSEDFAVYYCQQARLGPWTFGGGTKVEIK

- Kd [4]: 4.3 nM
- Kd [5]: 8.89 nM
B5: anti-Sortilin antibody S-15-10-12 (antibody, V domains shown)
VH: B4 VH with S31K, R32Y, V54I, L105A, G107F, G109A, S110G, P111R, R114Y
VL: B4 VL
